From patent US7109299B1, “Peptides and compounds that bind to the IL-5 receptor” (Affymax, Inc., priority 1999, dated 2006)
Bridge positions count the residues as written; N and C are the ends. Ends that are not written are not given here. Peptide text beside a SMILES is read from it. I, II: the chains in the order shown.

Assays:
[1] = target: T1, chimeric IL-5Rα/EGFR receptor (Homo sapiens, UniProt P00533+Q01344); test: chimeric IL-5Rα/EGFR luciferase reporter cell assay in Ba/F3 cells; format: cell-based; details: for luciferase activity of Ba/F3 cells expressing the chimera: serial dilutions, 4 hr
T1 construct: A chimeric receptor consisting of the IL-5Rα ECD fused to the transmembrane spanning and intracellular domains; expressed in transfected cells; host or cells: Ba/F3 cells with c-fos enhancer/TK promoter luciferase reporter
Source text: A system comprising a chimeric IL-5R-α/EGFR reported cell assay was designed to analyze receptor binding stoichiometry in a cellular context. A chimeric receptor consisting of the IL-5Rα ECD fused to the transmembrane spanning and intracellular domains of the epidermal growth factor receptor (EGFR) was constructed, and stably expressed in Ba/F3 cells that also contained a luciferase reporter gene under the transcriptional control of the c-fos enhancer and minimal thymidine kinase promoter.
In the assay, Ba/F3 cells expressing a chimeric IL-5Rα/EGFR receptor and containing a luciferase reporter gene were starved overnight of the WEHI conditioned medium in which they were maintained, then seeded into microtiter wells at a density of 10^5 cells/well. Following stimulation, the cells were incubated for 4 hr at 37° in a 5% CO2 incubator. LucLite reagent (Packard) was then added to the wells according to the manufacturer's instructions and the plates were assayed for luciferase activity by counting in a Topcount instrument (Packard). Data points represent mean±SEM for 3 separate experiments performed in triplicate. The data has been normalized to the stimulation induced by 1 μM AF18748 in each experiment.

IL-5RαECD = IL-5RαECD (Homo sapiens, UniProt Q01344); details: AF18748 over 10 pM to 1 nM; binding decreases above 1 nM
Protocol: A “sandwich” binding assay using microvolume fluorimetry (Martens et al., Anal. Biochem., 273:20 (1999)) was used to measure the ligand dependent association of two receptor proteins. IL-5RαECD (the extracellular domain (ECD) of the human IL-5 receptor a chain) was immobilized onto 10 μm beads and incubated with soluble, fluorescently labeled IL-5Rα ECD in the presence or absence of IL-5 or peptide.
Fluorescently labeled mAb 179 was prepared using Cy5 monofunctional reactive dye (Amersham) according to the manufacturer's instructions. (As disclosed in Martens et al., supra, Cy5.5 dye is also suitable.) Fluorescent mAb179:IL-5Rα ECD complexes were formed by preincubating the labeled antibody with an equimolar amount of receptor ECD in phosphate buffered saline (PBS) for 1 hr at room temperature. Mono A 10 μm polystyrene beads (Pharmacia) were coated first with biotinylated bovine serum albumin, then sequentially with streptavidin, biotinylated mAb179, and IL-5Rα ECD. […]
The binding reactions were incubated in microtiter plates overnight at room temperature, then microvolume fluorimetry measurements of bead-associated fluorescence were made using an FMAT instrument (Perkin-Elmer).

human IL-5 receptor = target: T2, human IL-5 receptor (Homo sapiens, UniProt Q01344); details: HL60 subclone, sodium butyrate induced; read-out: Kd of IL-5 binding sites; cited from earlier work
T2 construct: host or cells: HL60 subclone induced towards eosinophil differentiation with sodium butyrate
T2 sequence (Q01344 21-420): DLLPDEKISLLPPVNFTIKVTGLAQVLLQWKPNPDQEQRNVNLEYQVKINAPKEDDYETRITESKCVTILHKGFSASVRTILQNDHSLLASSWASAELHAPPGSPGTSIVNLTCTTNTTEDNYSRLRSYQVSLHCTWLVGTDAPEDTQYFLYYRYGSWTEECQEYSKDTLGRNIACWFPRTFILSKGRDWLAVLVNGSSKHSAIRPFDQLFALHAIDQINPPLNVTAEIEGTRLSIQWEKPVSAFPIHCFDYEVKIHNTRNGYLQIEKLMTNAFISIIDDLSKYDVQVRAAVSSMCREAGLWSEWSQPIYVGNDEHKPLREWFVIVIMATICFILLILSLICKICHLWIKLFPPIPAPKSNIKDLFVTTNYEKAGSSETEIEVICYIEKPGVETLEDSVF
T2 sequence (P32927 17-897 partner): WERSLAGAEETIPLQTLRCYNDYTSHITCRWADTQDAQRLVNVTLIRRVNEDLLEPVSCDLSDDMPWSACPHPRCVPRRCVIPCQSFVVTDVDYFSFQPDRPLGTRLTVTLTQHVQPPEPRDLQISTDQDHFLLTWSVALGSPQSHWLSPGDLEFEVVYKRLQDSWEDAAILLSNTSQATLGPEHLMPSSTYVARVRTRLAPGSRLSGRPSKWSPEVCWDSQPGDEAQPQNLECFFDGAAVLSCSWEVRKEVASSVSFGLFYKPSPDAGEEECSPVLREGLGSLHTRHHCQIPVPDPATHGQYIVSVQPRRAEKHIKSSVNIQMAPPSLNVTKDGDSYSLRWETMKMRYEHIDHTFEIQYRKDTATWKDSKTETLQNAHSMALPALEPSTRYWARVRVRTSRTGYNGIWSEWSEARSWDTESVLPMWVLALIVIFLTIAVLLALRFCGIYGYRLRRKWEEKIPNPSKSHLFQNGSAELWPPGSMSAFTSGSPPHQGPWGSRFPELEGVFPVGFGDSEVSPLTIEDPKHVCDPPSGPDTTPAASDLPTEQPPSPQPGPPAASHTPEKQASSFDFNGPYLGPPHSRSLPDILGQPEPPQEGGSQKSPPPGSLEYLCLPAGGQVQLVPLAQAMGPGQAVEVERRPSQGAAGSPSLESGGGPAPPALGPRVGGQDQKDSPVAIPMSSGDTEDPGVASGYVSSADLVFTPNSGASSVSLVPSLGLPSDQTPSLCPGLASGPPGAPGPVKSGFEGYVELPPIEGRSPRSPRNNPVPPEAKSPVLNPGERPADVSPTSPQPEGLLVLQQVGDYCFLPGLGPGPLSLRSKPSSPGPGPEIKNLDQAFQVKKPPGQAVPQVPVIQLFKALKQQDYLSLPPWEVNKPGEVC

[2] = target: T3, native IL-5R α/β complex on TF-1 cells (Homo sapiens, UniProt Q01344); test: competition binding of [125I] IL-5 to TF-1 cells; details: read-out: IC50, inhibition of binding of [125I] IL-5 to TF-1 cells
T3 construct: endogenous in cells; host or cells: TF-1 cells
T3 sequence (Q01344 21-420): T2 sequence (Q01344 21-420)
Protocol: The ability of AF18748 to bind to the native IL-5R α/β complex on TF-1 cells was assessed in a competition binding assay (as described in McKinnon et al., J. Exp. Med 186: 121 (1997)). The binding of [^125I]

human eosinophils = format: cell-based
Protocol: The functional activity of AF18748 was assessed in a human eosinophil adhesion assay (following the method of […], et al, Cytokine 8:248 (1996)). […] AF18748 is therefore a potent and selective antagonist of IL-5 in a human eosinophil functional assay.

IL-5Rα ECD [3] = target: T4, IL-5Rα ECD (Homo sapiens, UniProt Q01344); test: biochemical
T4 sequence (Q01344 21-342 limits assumed): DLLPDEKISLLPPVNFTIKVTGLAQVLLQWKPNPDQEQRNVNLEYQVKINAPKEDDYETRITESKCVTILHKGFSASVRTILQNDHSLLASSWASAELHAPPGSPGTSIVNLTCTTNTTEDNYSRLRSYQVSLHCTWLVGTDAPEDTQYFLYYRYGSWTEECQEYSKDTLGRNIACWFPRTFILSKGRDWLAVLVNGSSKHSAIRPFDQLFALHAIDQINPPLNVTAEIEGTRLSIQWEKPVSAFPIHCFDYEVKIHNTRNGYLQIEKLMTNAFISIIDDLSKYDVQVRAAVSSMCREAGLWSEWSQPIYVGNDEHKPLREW
Protocol: Binding affinities of synthetic peptides for IL-5Rα were measured in a competition binding assay using radio-iodinated IL-5. Immulon 4 (Dynatech) microtiter wells were coated with streptavidin (Sigma) by incubating 100 μl of a 50 μg/ml solution in PBS for 30 min. at 37°. The wells were blocked with 200 μl of 1% BSA in PBS for 15 min. at 37°, followed by 100 μl of biotinylated monoclonal antibody, designated mAb 179, at 5 μg/ml in PBS. Soluble IL-5Rα was then immobilized in the wells by incubating 100 μl of a solution of soluble receptor harvest diluted 1:5000 in PBS/0.1% BSA for 1 hr. at 4°. After washing away unbound receptor, 50 μl of various concentrations of test peptide diluted in PBS/0.1% BSA were added to the wells, followed by 50 μl of a fixed concentration of [^125I] IL-5 (Amersham). The binding reactions were incubated at 4° C. for 2 hr, then washed with PBS to remove unbound [^125I] IL-5. Bound [^125I] IL-5 was determined by gamma counting. Total binding was defined by the amount of [^125I] IL-5 bound in the absence of any competitor. Non-specific binding was defined by the amount of [^125I] IL-5 bound in the presence of 30 nM IL-5. Peptide binding data was analyzed to determine the peptide concentration required to reduce specific [^125I] IL-5 binding by 50% (IC50).

IL-5Rα ECD [4] = target: T4, IL-5Rα ECD; test: gel filtration chromatography of IL-5Rα ECD with peptide; design: IL-5RαECD=ECD of the human IL-5 receptor a chain
Protocol: Secondly, the ability of peptides to induce receptor dimerization was studied using gel filtration chromatography. Gel filtration chromatography was performed on a Pharmacia Smart system using a Precision Superdex 200 3.2/30 column at 25° C. with a flow rate of 10 μl/min. The buffer was 50 mM Tris pH 7.5, 0.5 M NaCl. The column was calibrated using the Biorad Gel filtration molecular weight standards which contain Thyroglobulin, 670 KD; Bovine gamma globulin, 158 KD; Chicken ovalbumin, 44 KD; Equine myoglobin, 17 KD; Vitamin B12, 1.35 KD. […] Results shown are from a single experiment, representative of three separate runs for each condition.

[5] = IL-5Rα ECD with equimolar peptide, Superdex 200

T1 sequence (Q01344+P00533 fused, stated change not applied): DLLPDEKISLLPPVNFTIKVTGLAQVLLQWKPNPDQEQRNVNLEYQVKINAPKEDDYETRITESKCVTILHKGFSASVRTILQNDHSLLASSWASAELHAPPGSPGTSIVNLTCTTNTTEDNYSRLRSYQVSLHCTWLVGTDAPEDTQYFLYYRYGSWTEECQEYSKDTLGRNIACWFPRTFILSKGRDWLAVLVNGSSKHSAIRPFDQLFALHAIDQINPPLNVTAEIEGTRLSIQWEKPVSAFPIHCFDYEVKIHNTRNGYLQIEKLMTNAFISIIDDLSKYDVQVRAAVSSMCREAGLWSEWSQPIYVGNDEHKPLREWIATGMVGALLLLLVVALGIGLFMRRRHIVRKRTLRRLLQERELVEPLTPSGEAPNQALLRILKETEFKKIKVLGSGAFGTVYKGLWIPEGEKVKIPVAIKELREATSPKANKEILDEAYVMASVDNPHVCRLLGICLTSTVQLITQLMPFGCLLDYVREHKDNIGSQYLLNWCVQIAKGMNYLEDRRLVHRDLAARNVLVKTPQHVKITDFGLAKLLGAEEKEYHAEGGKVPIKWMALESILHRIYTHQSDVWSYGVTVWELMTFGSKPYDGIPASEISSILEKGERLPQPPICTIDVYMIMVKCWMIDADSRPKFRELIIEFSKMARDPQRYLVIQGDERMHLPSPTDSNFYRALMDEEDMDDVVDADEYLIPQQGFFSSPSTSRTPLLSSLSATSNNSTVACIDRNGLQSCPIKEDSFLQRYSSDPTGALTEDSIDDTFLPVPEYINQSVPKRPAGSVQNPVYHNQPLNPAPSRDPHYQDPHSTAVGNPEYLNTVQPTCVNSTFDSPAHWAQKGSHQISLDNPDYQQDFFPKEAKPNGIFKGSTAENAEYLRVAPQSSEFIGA

Molecule	basal level of luciferase expression in unstimulated cells [1]	effect on activation of the luciferase reporter by AF18748 ([1]; 200 pM AF18748, increasing concentrations of IL-5)	luciferase activity of Ba/F3 cells expressing the chimera [1]	association of fluorescently labeled IL-5Rα ECD to IL-5RαECD-coated beads (IL-5RαECD)	Kd (human IL-5 receptor) [nM]	IC50 [2] [nM]	IC50 (human eosinophils) [nM]	IC50 (IL-5Rα ECD [3]) [nM]	Receptor State (IL-5Rα ECD [4]; IL-5Rα ECD with equimolar peptide)	Calculated MW (IL-5Rα ECD [4]; [5]) [kDa]	Elution Volume (IL-5Rα ECD [4]; [5])	effect on elution / apparent size of IL-5Rα ECD (IL-5Rα ECD [4]; gel filtration)
IL-5: Interleukin 5, natural ligand, disulfide linked homodimer	reduced basal level of luciferase expression	antagonized	no effect	did not mediate receptor association	0.03	–	–	–	–	–	–	–
CC(C)[C@H](NC(=O)[C@H](CSSC[C@H](NC(=O)[C@@H](NC(=O)[C@H](Cc1ccc(O)cc1)NC(=O)CNC(=O)[C@H](CC(=O)O)NC(=O)CNC(=O)CNC(=O)CNC(=O)[C@@H](N)[C@@H](C)O)C(C)C)C(=O)N[C@H](C(=O)N[C@@H](CCC(=O)O)C(=O)N[C@@H](Cc1c[nH]c2ccccc12)C(=O)N[C@@H](C)C(=O)N[C@@H](CCCNC(=N)N)C(=O)N[C@H]1CSSC[C@@H](C(=O)N[C@@H](CCCCN)C(=O)O)NC(=O)[C@H]([C@@H](C)O)NC(=O)[C@@H]2CCCN2C1=O)C(C)C)NC(=O)[C@@H](NC(=O)[C@H](Cc1ccc(O)cc1)NC(=O)CNC(=O)[C@H](CC(=O)O)NC(=O)CNC(=O)CNC(=O)CNC(=O)[C@@H](N)[C@@H](C)O)C(C)C)C(=O)N[C@@H](CCC(=O)O)C(=O)N[C@@H](Cc1c[nH]c2ccccc12)C(=O)N[C@@H](C)C(=O)N[C@@H](CCCNC(=N)N)C(=O)N[C@H]1CSSC[C@@H](C(=O)N[C@@H](CCCCN)C(=O)O)NC(=O)[C@H]([C@@H](C)O)NC(=O)[C@@H]2CCCN2C1=O [AF18748] (I: H-TGGGDGYVCVEWARCPTCK-OH / II: H-TGGGDGYVCVEWARCPTCK-OH; disulfide I:9-II:9, I:15-I:18, II:15-II:18)	–	–	–	–	–	0.4 ± 0.04	0.348 ± 0.067	0.78	–	–	–	–
VDECWRIIASHTWFCAEE (disulfide 4-15 (inferred)) [AF17121]	reduced basal level of luciferase expression	–	no effect	did not mediate the association of labeled receptor with the beads	–	–	–	–	Monomer	89.5	1.425	no effect on the elution of the receptor
